Test results as given in patent US20220273720A1.

Molecular target: CD3 on non-edited CD3+ T cells of a human donor (human) (UniProt P07766)
Experiment: cell-based or functional assay

Sequence of CD3 on non-edited CD3+ T cells of a human donor (human) (P07766 23-207, chain 1 of 3): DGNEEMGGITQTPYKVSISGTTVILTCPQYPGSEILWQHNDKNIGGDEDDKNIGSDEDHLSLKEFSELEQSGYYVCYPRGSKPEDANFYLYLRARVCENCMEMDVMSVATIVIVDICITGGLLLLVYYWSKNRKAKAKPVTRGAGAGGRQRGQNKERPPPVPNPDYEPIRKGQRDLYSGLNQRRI
Sequence of CD3 on non-edited CD3+ T cells of a human donor (human) (P09693 23-182, chain 2 of 3, further chain): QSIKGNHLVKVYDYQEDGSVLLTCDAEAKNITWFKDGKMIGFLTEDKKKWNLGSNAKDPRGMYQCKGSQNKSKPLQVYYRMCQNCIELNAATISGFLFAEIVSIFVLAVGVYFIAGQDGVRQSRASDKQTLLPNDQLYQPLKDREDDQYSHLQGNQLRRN
Sequence of CD3 on non-edited CD3+ T cells of a human donor (human) (P04234 22-171, chain 3 of 3, further chain): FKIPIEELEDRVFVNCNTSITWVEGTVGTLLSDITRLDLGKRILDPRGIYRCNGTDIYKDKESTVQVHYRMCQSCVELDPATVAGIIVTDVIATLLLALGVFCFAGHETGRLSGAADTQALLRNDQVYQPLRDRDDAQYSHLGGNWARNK

Work on “foralumab biosimilar (Creative Biolabs) (antibody)” yielded a percent killing in a complement-dependent cytotoxicity (CDC) assay on non-edited CD3+ T cells, 24 h, 30% human serum, antibody at 30-4000 ng/ml of 65%.
